Data reported in the supplement of paper PMC9112550, “Optimization of the antimicrobial peptide Bac7 by deep mutational scanning” (BMC Biology, 2022).

Test system: Escherichia coli TOP10
Assay: shrunken log2 fold change of peptide-encoding DNA abundance (4.5 h post-induction vs induction); higher = less antimicrobial activity (less host growth inhibition)
Settings: time post-induction: 4.5 h; library: site-saturation at positions 5, 18, 19, 20
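Note: peptides expressed intracellularly from a pBAD plasmid library in pooled LB shake-flask culture, induced with 0.3% L-arabinose, DNA abundance read by NGS, three biological replicates, DESeq2 with apeglm shrinkage.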

Row | Sequence | shrunken log2 fold change
1 | RRIRCRPPRLPRPRPRPHHAPRP | 0.0208
2 | RRIRGRPPRLPRPRPRPEPMPRP | 0.648
3 | RRIRGRPPRLPRPRPRPIVKPRP | 0.328
4 | RRIRWRPPRLPRPRPRPVRTPRP | 0.955
5 | RRIRERPPRLPRPRPRPYPDPRP | -1.61
6 | RRIRLRPPRLPRPRPRPHCLPRP | -0.0829
7 | RRIRWRPPRLPRPRPRPNPAPRP | 0.098
8 | RRIRVRPPRLPRPRPRPAYCPRP | -0.112
9 | RRIRNRPPRLPRPRPRPHEGPRP | -0.015
10 | RRIRPRPPRLPRPRPRPAQSPRP | 0.448
11 | RRIRFRPPRLPRPRPRPHVGPRP | -0.224
12 | RRIRFRPPRLPRPRPRPVKAPRP | 0.0979
13 | RRIRNRPPRLPRPRPRPAFFPRP | 0.0459
14 | RRIRYRPPRLPRPRPRPASGPRP | -0.148
15 | RRIRDRPPRLPRPRPRPTVMPRP | -0.221
16 | RRIRSRPPRLPRPRPRPYIFPRP | -0.683
17 | RRIRSRPPRLPRPRPRPVVIPRP | -0.429
18 | RRIRHRPPRLPRPRPRPRFYPRP | -0.015
19 | RRIRYRPPRLPRPRPRPNRFPRP | -0.00943
20 | RRIRARPPRLPRPRPRPGKMPRP | -0.0572
21 | RRIRRRPPRLPRPRPRPYDAPRP | -0.635
22 | RRIRRRPPRLPRPRPRPVSYPRP | 0.241
23 | RRIRVRPPRLPRPRPRPLFWPRP | 0.139
24 | RRIRSRPPRLPRPRPRPWEKPRP | -0.01
25 | RRIRRRPPRLPRPRPRPYHNPRP | -0.819

Row | Sequence | shrunken log2 fold change
26 | RRIRQRPPRLPRPRPRPRWGPRP | 0.447
27 | RRIRERPPRLPRPRPRPVNIPRP | -0.0402
28 | RRIRYRPPRLPRPRPRPVGRPRP | 0.0286
29 | RRIRARPPRLPRPRPRPICTPRP | 0.197
30 | RRIRDRPPRLPRPRPRPCNAPRP | 0.0759
31 | RRIRHRPPRLPRPRPRPAIEPRP | 0.0588
32 | RRIRQRPPRLPRPRPRPNLWPRP | -0.0933
33 | RRIRMRPPRLPRPRPRPGEYPRP | 0.434
34 | RRIRDRPPRLPRPRPRPMNDPRP | -0.126
35 | RRIRGRPPRLPRPRPRPQWAPRP | 0.498
36 | RRIRLRPPRLPRPRPRPYFSPRP | -0.39
37 | RRIRHRPPRLPRPRPRPDHWPRP | -0.0694
38 | RRIRPRPPRLPRPRPRPTWWPRP | 0.426
39 | RRIRARPPRLPRPRPRPDQKPRP | 0.442
40 | RRIRFRPPRLPRPRPRPRSMPRP | -0.408
41 | RRIRSRPPRLPRPRPRPNATPRP | 0.551
42 | RRIRPRPPRLPRPRPRPPNIPRP | -0.414
43 | RRIRARPPRLPRPRPRPVETPRP | 0.759
44 | RRIRFRPPRLPRPRPRPQKHPRP | -0.327
45 | RRIRWRPPRLPRPRPRPFFTPRP | -0.0367
46 | RRIRERPPRLPRPRPRPENMPRP | 0.000515
47 | RRIRMRPPRLPRPRPRPCGMPRP | 0.134
48 | RRIRCRPPRLPRPRPRPLDVPRP | -0.41
49 | RRIRSRPPRLPRPRPRPIWEPRP | 0.0462
50 | RRIRCRPPRLPRPRPRPAVFPRP | -0.127

Row | Sequence | shrunken log2 fold change
51 | RRIRVRPPRLPRPRPRPEKIPRP | -0.191
52 | RRIRTRPPRLPRPRPRPGRQPRP | 0.0723
53 | RRIRHRPPRLPRPRPRPWWYPRP | -0.0664
54 | RRIRSRPPRLPRPRPRPERHPRP | 0.0386
55 | RRIRYRPPRLPRPRPRPSQGPRP | -0.031
56 | RRIRIRPPRLPRPRPRPDLHPRP | 0.0268
57 | RRIRGRPPRLPRPRPRPFCAPRP | 0.836
58 | RRIRVRPPRLPRPRPRPHSHPRP | -0.348
59 | RRIRLRPPRLPRPRPRPFPAPRP | -0.094
60 | RRIRPRPPRLPRPRPRPYFVPRP | -0.488
61 | RRIRSRPPRLPRPRPRPACKPRP | -0.146
62 | RRIRMRPPRLPRPRPRPTGGPRP | 0.454
63 | RRIRIRPPRLPRPRPRPDKAPRP | -0.00957
64 | RRIRQRPPRLPRPRPRPVCMPRP | -0.0787
65 | RRIRKRPPRLPRPRPRPCLPPRP | 0.0253
66 | RRIRSRPPRLPRPRPRPCILPRP | -0.241
67 | RRIRHRPPRLPRPRPRPMFCPRP | 0.0621
68 | RRIRCRPPRLPRPRPRPWEGPRP | -0.00146
69 | RRIRWRPPRLPRPRPRPYWFPRP | -0.0484
70 | RRIRCRPPRLPRPRPRPLKIPRP | -0.511
71 | RRIRIRPPRLPRPRPRPVCDPRP | -0.372
72 | RRIRERPPRLPRPRPRPQNGPRP | -0.0634
73 | RRIRYRPPRLPRPRPRPGQVPRP | -0.0686
74 | RRIRMRPPRLPRPRPRPGWMPRP | 0.622
75 | RRIRTRPPRLPRPRPRPKYNPRP | -0.81

Row | Sequence | shrunken log2 fold change
76 | RRIRTRPPRLPRPRPRPQVEPRP | -0.00619
77 | RRIRHRPPRLPRPRPRPSPAPRP | 0.108
78 | RRIRHRPPRLPRPRPRPNCSPRP | 0.0841
79 | RRIRCRPPRLPRPRPRPSFWPRP | -0.0552
80 | RRIRKRPPRLPRPRPRPFDHPRP | 0.119
81 | RRIRNRPPRLPRPRPRPCEPPRP | -0.183
82 | RRIRARPPRLPRPRPRPSPNPRP | 0.0681
83 | RRIRDRPPRLPRPRPRPANYPRP | -0.148
84 | RRIRERPPRLPRPRPRPKKPPRP | 0.507
85 | RRIRSRPPRLPRPRPRPVCGPRP | 0.548
86 | RRIRTRPPRLPRPRPRPCTYPRP | -0.326
87 | RRIRWRPPRLPRPRPRPWKQPRP | 0.296
88 | RRIRGRPPRLPRPRPRPKCEPRP | 1.14
89 | RRIRFRPPRLPRPRPRPPLTPRP | 0.354
90 | RRIRLRPPRLPRPRPRPHRRPRP | 0.0082
91 | RRIRFRPPRLPRPRPRPGDEPRP | 0.0387
92 | RRIRCRPPRLPRPRPRPYQPPRP | -0.152
93 | RRIRLRPPRLPRPRPRPKPDPRP | 0.315
94 | RRIRPRPPRLPRPRPRPCATPRP | 0.132
95 | RRIRHRPPRLPRPRPRPNEEPRP | -0.00146
96 | RRIRARPPRLPRPRPRPQHTPRP | 0.156
97 | RRIRHRPPRLPRPRPRPCCCPRP | -0.421
98 | RRIRFRPPRLPRPRPRPRILPRP | 0.0716
99 | RRIRMRPPRLPRPRPRPYVAPRP | -0.445
100 | RRIRKRPPRLPRPRPRPYEAPRP | -0.325

Row | Sequence | shrunken log2 fold change
101 | RRIRRRPPRLPRPRPRPINVPRP | -0.326
102 | RRIRKRPPRLPRPRPRPRCFPRP | 0.412
103 | RRIRWRPPRLPRPRPRPLMLPRP | -0.0143
104 | RRIRLRPPRLPRPRPRPTTIPRP | 0.255
105 | RRIRMRPPRLPRPRPRPCVSPRP | -0.0589
106 | RRIRNRPPRLPRPRPRPMIHPRP | -0.136
107 | RRIRYRPPRLPRPRPRPMHMPRP | -0.113
108 | RRIRIRPPRLPRPRPRPIERPRP | -0.0785
109 | RRIRWRPPRLPRPRPRPSALPRP | 0.678
110 | RRIRFRPPRLPRPRPRPHMDPRP | -1.29
111 | RRIRQRPPRLPRPRPRPKEWPRP | -0.00145
112 | RRIRARPPRLPRPRPRPKNWPRP | 0.465
113 | RRIRVRPPRLPRPRPRPACWPRP | 0.517
114 | RRIRKRPPRLPRPRPRPIPIPRP | 0.136
115 | RRIRNRPPRLPRPRPRPWMCPRP | -1.23
116 | RRIRFRPPRLPRPRPRPARVPRP | 0.319
117 | RRIRDRPPRLPRPRPRPPHHPRP | -0.0964
118 | RRIRLRPPRLPRPRPRPSDWPRP | -0.106
119 | RRIRCRPPRLPRPRPRPPHEPRP | 1.23
120 | RRIRGRPPRLPRPRPRPWFKPRP | -0.824
121 | RRIRRRPPRLPRPRPRPRAIPRP | 0.405
122 | RRIRPRPPRLPRPRPRPIGLPRP | 0.155
123 | RRIRKRPPRLPRPRPRPKVYPRP | -0.124
124 | RRIRPRPPRLPRPRPRPIIMPRP | 0.195
125 | RRIRSRPPRLPRPRPRPWAHPRP | -0.186
